In US20090275502A1, “METHODS AND COMPOSITIONS FOR ENHANCING DEVELOPMENTAL POTENTIAL OF OOCYTES AND PREIMPLANTATION EMBRYOS” (MOUNT SINAI HOSPITAL, priority 2005, published 2009):

Assays:
Assay type in all cases: cell-based, mouse
FVB oocytes [1] = assay: Reactive oxygen species (H2DCFDA) content of FVB oocytes; conditions: co-treatment of FVB oocytes; inhibitor 2 μg ml^−1, 30 min; data not shown
Method: Reduced glutathione (GSH) content: Quantitation of cellular GSH was assayed by use of monochlorobimane (Molecular Probes, Eugene, Oreg.), a cell-permeant dye that becomes fluorescent upon conjugation to thiol groups (Nasr-Esfahani and Johnson 1992). One group of untreated oocytes served as a control for measuring baseline GSH levels, whereas two other groups of oocytes were treated with I mM hydrogen peroxide (Sigma). For the latter, one group was exposed to hydrogen peroxide for 90 min (oxidative insult) whereas the second group was incubated with hydrogen peroxide for 30 min and transferred to fresh culture medium without hydrogen peroxide for an additional 60 min (recovery after oxidative insult). During the last 15 min of incubation, monochlorobimane was added to a final concentration of 1 mM, after which the oocytes were washed in fresh culture medium. Imaging and micrograph analyses were then conducted using a deconvolution microscope equipped with a cyan fluorescent protein filter. The average fluorescence intensities were tabulated on a per oocyte basis, and the data were then compiled per group. Reactive oxygen species: Formation of ROS was determined through the use of 2′,7′-dichlorodihydrofluorescein diacetate (H2DCFDA; Molecular Probes) as described (Yang et al. 1998). The H2DCFDA dye is membrane permeant, and upon entering the cell the acetate groups are hydrolyzed, creating a membrane impermeant form of the dye (H2DCF). Endogenous ROS oxidize this polar form of the dye to a quantifiable fluorogenic compound (DCF). Oocytes were mixed with a freshly prepared solution of 0.01 M H2DCFDA and incubated for 15 min. After extensive washing in fresh culture medium, imaging was carried out using a deconvolution microscope with a FITC filter. Total light intensity for each optical section and average light intensity for each oocyte were determined using the Delta Vision Software Analysis program. In order to determine baseline fluorescence, control oocytes (unstained) were incubated with an appropriate volume of vehicle (DMSO) prior to imaging. […]

FVB oocytes [2] = assay: Electron microscopy of mitochondrial ultrastructure in FVB oocytes; conditions: 10 mM, 3 h; versus vehicle
Method: Electron microscopy: Oocytes were cultured without or with pyruvate (10 mM) for 3 h prior to being fixed for EM tomography. The oocytes were embedded in agarose and prepared for tomography using conventional protocols for good structural preservation (Ricci et al. 2004). To survey the preservation quality of the oocytes, thin-sectioned materials (−80 nm) were examined using a JEOL 1200FX electron microscope. Three-dimensional reconstructions of portions of the cell containing mitochondria were generated using standard techniques (Perkins et al. 2003). Sections with a thickness between 300-500 nm were cut out, and stained for 30 min in 2% aqueous uranyl acetate, followed by 30 min in lead salts. Next, fiducial cues consisting of 20 nm colloidal gold particles were deposited on both sides of each section.
For each reconstruction, a series of images at regular tilt increments were collected with a JEOL 4000EX intermediate-voltage electron microscope operated at 400 kV. In order to limit anisotropic specimen thinning during image collection, the specimens were irradiated before initiating a tilt series. […] Tilt series were recorded at a magnification of 20,000× with an angular increment of 2° from −60° to +60° about an axis perpendicular to the optical axis of the microscope using a computer-controlled goniometer to achieve accurate increments at each angular step. […]

B6C3F1 oocytes = assay: Apoptosis in cultured B6C3F1 oocytes after microinjection
Method: (§1) Oocyte isolation and culture: Oocytes were collected after superovulation as described (Perez et al. 1997; Perez et al. 1999; Morita et al. 2000). Briefly, ovulated oocytes were denuded of cumulus cells by a 1-min incubation in 80 IU ml of hyaluronidase (Sigma, St. Louis, Mo.), followed by three washes with culture medium. All cultures were carried out in human tubal fluid (Irvine Scientific, Santa Ana, Calif.) supplemented with 0.5% BSA. The oocytes were maintained in 0.1 ml drops of culture medium under paraffin oil, and incubated at 37° C. in a humidified atmosphere of 5% CO2 and 95% air.
(§2) In-vitrofertilization and embryo culture: Female mice were superovulated as described above and cumulus-oocyte complexes from the indicated strains were mixed with capacitated sperm collected from adult male mice of the respective strain for in-vitro fertilization (Morita et al. 2000). […] Since zygotes progress to the blastocyst stage of development within 96 h and begin hatching, embryos were fixed at this time and stained with the DNA-binding dye Hoechst 33342 (Sigma) for light and fluorescence microscopic analysis of blastocyst cell number and quality. […] Analysis of DNA “comets” to generate quantitative data on the percent of undamaged versus damaged DNA was performed using the VisComet program (Impuls Computergestutzte Bildanalyse GmbH, Gilching, Germany). […]

AKR/J zygotes = assay: Preimplantation embryonic development of in-vitro fertilized AKR/J oocytes to the blastocyst stage
Method: In-vitrofertilization and embryo culture: Female mice were superovulated as described above and cumulus-oocyte complexes from the indicated strains were mixed with capacitated sperm collected from adult male mice of the respective strain for in-vitro fertilization (Morita et al. 2000). After 2 h, the cumulus-oocyte complexes were washed and maintained in KSOM medium (Specialty Media, Phillipsburg, N.J.) to determine fertilization rates and monitor embryonic progression. Since zygotes progress to the blastocyst stage of development within 96 h and begin hatching, embryos were fixed at this time and stained with the DNA-binding dye Hoechst 33342 (Sigma) for light and fluorescence microscopic analysis of blastocyst cell number and quality. Apoptosis analyses: Oocytes were evaluated as described (Perez et al. 1997; Perez et al. 1999; Mortia et al. 2000) for characteristics of apoptosis, including morphological changes (e.g., cellular condensation, budding and fragmentation) and biochemical alterations (i.e., DNA cleavage using Comet Assay Kit; Trevigen, Gaithersburg, Md.). Analysis of DNA “comets” to generate quantitative data on the percent of undamaged versus damaged DNA was performed using the VisComet program (Impuls Computergestutzte Bildanalyse GmbH, Gilching, Germany). […]

FVB oocytes [3] = assay: Apoptosis in cultured FVB oocytes; conditions: microinjection; 24 h in vitro
Method: as §1, §2

AKR/J oocytes [4] = assay: Comet assay of DNA damage in cultured AKR/J oocytes after microinjection; conditions: 6 h culture after microinjection, versus non-injected AKR/J oocytes
Method: as §1, §2

AKR/J oocytes [5] = assay: Apoptosis in cultured AKR/J oocytes; conditions: microinjection; versus non-injected and BSA-injected oocytes
Method: as §1, §2

Molecule: C=C(C)[C@H]1Cc2c(ccc3c2O[C@@H]2COc4cc(OC)c(OC)cc4[C@@H]2C3=O)O1 [rotenone]
- reduction of ROS content (FVB oocytes [1]): 54%

Molecule: CC[C@H]1/C=C/C=C/C[C@@H](C)[C@H](O)[C@@](C)(O)C(=O)[C@@H](C)[C@H](O)[C@@H](C)C(=O)[C@@H](C)[C@H](O)[C@@H](C)/C=C/C(=O)O[C@@H]2[C@H](C)[C@H](CC1)O[C@]1(CC[C@H](C)[C@H](C[C@@H](C)O)O1)[C@H]2C [oligomycin]
- reduction of ROS content (FVB oocytes [1]): 70%

Molecule: antimycin-A
- reduction of ROS content (FVB oocytes [1]): 70%

Molecule: CC(=O)C(=O)O [pyruvate]
- reduction in number of abnormal mitochondria in FVB oocytes (FVB oocytes [2]): more than 75%

Molecule: cytochrome c: cytochrome c microinjected into oocytes (6 pl of a 400 μM stock)
- apoptosis in B6C3F1 oocytes (B6C3F1 oocytes; subsequent 24 h culture): did not affect the incidence of apoptosis

B1: Smac/DIABLO: recombinant death-promoting protein released along with cytochrome c from mitochondria (protein, UniProt Q9NR28 22-239, looked up)
Diablo IAP-binding …: LCVPVVANFKKRCFSELIRPWHKTVTIGFGVTLCAVPIAQKSEPHSLSSEALMRRAVSLVTDSTSTFLSQTTYALIEAITEYTKAVYTLTSLYRQYTSLLGKMNSEEEDEVWQVIIGARAEMTSKHQEYLKLETTWMTAVGLSEMAAEAAYQTGADQASITARNHIQLVKLQVEEVHQLSRKAETKLAEAQIEELRQKTQEEGEERAESEQEAYLRED
- increase in incidence of apoptosis in B6C3F1 oocytes (B6C3F1 oocytes; 24 h culture): ~3 fold

B2: Rad51: recombinant Rad51 DNA repair protein (Kurumizaka et al. 1999), microinjected (protein, UniProt Q06609 2-339, looked up)
DNA repair protein RAD51 …: AMQMQLEANADTSVEEESFGPQPISRLEQCGINANDVKKLEEAGFHTVEAVAYAPKKELINIKGISEAKADKILAEAAKLVPMGFTTATEFHQRRSEIIQITTGSKELDKLLQGGIETGSITEMFGEFRTGKTQICHTLAVTCQLPIDRGGGEGKAMYIDTEGTFRPERLLAVAERYGLSGSDVLDNVAYARAFNTDHQTQLLYQASAMMVESRYALLIVDSATALYRTDYSGRGELSARQMHLARFLRMLLRLADEFGVAVVITNQVVAQVDGAAMFAADPKKPIGGNIIAHASTTRLYLRKGRGETRICKIYDSPCLPEAEAMFAINADGVGDAKD
- blastocyst formation rates of AKR/J zygotes (AKR/J zygotes; microinjection into AKR/J zygotes, compared with C57BL/6 zygotes): levels not different from those observed with C57BL/6 zygotes
- microinjected AKR/J zygotes completing development to the blastocyst stage (AKR/J zygotes; microinjection into fertilized AKR/J oocytes, untreated less than 10%): more than 30%
- incidence of apoptosis in FVB oocytes (FVB oocytes [3]): no effect
- extent of DNA damage (AKR/J oocytes [4]): decreased the extent of DNA damage
- apoptosis in AKR/J oocytes (AKR/J oocytes [5]): significantly suppressed apoptosis
